Measured values reported in the DeepSol protein solubility set.

Test: soluble on expression in E. coli; label from the status in PepcDB or PDB records

**Q.** For “MSLRVKTMVFTPFISMVGVTGSMGPFFCEFTLNGDLLPINYPATYTHELAHLLGISSEAEANFYAYQVCTRSQIKGIRFSGYFSILNHVLGNARRLLSEKEYADIINRIRPEIIELAKKNQEYWMAKYSPLIGDVQNWIYDLYLKGNKIESGRKNYSEVIGLLISYQVWKAKTASDEGHHHHHH”, which “soluble on expression in E. coli” value is on record?
**A.** not soluble

**Q.** For “MHYVTPDLCDAYPELVQVVEPMFSNFGGRDSFGGEIVTIKCFEDNSLVKEQVDKDGKGKVLVVDGGGSLRRALLGDMLAEKAAKNGWEGIVVYGCIRDVDVIAQTDLGVQALASHPLKTDKRGIGDLNVAVTFGGVTFRPGEFVYADNNGIIVSPQALKMPELEHHHHHH”, which “soluble on expression in E. coli” value is on record?
**A.** soluble

**Q.** Which “soluble on expression in E. coli” value does the source give for “MSLRIDHSGSCVWLKMQKPRFSFAVLLPSETMRRQFTRNTSNMKTELTLLEQTLTLHRFPKRNNETLQAWDAGDEYLIQHVEQLALPESSHIVIINDHFGTLSCWFSQKHKVSMMSDSYIAHQATQANLQQNQRPPVQLLTTLDPVPNDASVVLLQLPKSNRHLVWILSQLRKALSPNIPIIAVNKAKEIHTSTLNLFEKHLGPTTTSLAWKKHRLVFSSATVNPANEVNPECGWSIEPYAITLTNLPNVYSGESLDLGSRFILEHLPADPTLEDFIDLGCGNGVLSVRLGQLNPQAKITCVDESFMAIASAQKNLHDNLGKRDIHCIANNCLDGFPAHSSSMIVCNPPFHQQQTITDHIAWQMFCDSKHVLKKGGKLWVIGNRHLGYDVKLARLFGKSHVRVIANNSKFVILQAIKSEGHHHHHH” here?
**A.** not soluble

**Q.** With “MGHHHHHHSHMQPAKEVTKASDGSLLGDLGHTPLSKKEGIKWQRPRLSRQALMRCCLVKWILSSTAPQGSDSSDSELELSTVRHQPEGLDQLQAQTKFTKKELQSLYRGFKNECPTGLVDEDTFKLIYAQFFPQGDATTYAHFLFNAFDADGNGAIHFEDFVVGLSILLRGTVHEKLKWAFNLYDINKDGYITKEEMLAIMKSIYDMMGRHTYPILREDAPAEHVERFFEKMDRNQDGVVTIEEFLEACQKDENIMSSMQLFENVI” as the sequence, how does the “soluble on expression in E. coli” value read?
**A.** not soluble

**Q.** Which “soluble on expression in E. coli” value does the source give for “MTSSLSLHSSFVPSFADLSDRGLISKNSPTSVSISKVPTWEKKQISNRNSFKLNCVMEKSVDGQTHSTVNNTTDSLNTMNIKEEASVSTLLVNLDNKFDPFDAMSTPLYQTATFKQPSAIENGPYDYTRSGNPTRDALESLLAKLDKADRAFCFTSGMAALSAVTHLIKNGEEIVAGDDVYGGSDRLLSQVVPRSGVVVKRVNTTKLDEVAAAIGPQTKLVWLESPTNPRQQISDIRKISEMAHAQGALVLVDNSIMSPVLSRPLELGADIVMHSATKFIAGHSDVMAGVLAVKGEKLAKEVYFLQNSEGSGLAPFDCWLCLRGIKTMALRIEKQQENARKIAMYLSSHPRVKKVYYAGLPDHPGHHLHFSQAKGAGSVFSFITGSVALSKHLVETTKYFSIAVSFGSVKSLISMPCFMSHASIPAEVREARGLTEDLVRISAGIEDVDDLISDLDIAFKTFPL” here?
**A.** soluble

**Q.** For “MKILVFGGTRFFGKKLVERLVSEGHDVTIGTRGKTEDNFGDTVKRVVLNRESRDALFQLAKEDWDVIYDNICFSPKEALYAVDAFKGKVKRYIYTSSLSVYSQKGRALVEADFNPEHYEIVIGDKEDFDYGEGKRLAEAVFFQKASFPVVAVRFPIVLGLDDYTKRLHFHINHIKNHQEIGISNGQAEIGFITSDEAAHFLEWVGVESDLTGPVNATSNGTYALNGFIKMLEEKIGELALVEEVTDDVDDSPFGIEKTYYLDNAKATEAGFVFNDLKVWLPALVTDILKENLEHHHHHH”, which “soluble on expression in E. coli” value is on record?
**A.** not soluble

**Q.** For “MALIEYNPPLEPYLDIIYQDNHLCVVNKPSGLLSVPGNQPQYYDSAMSRVKEKFGFCEPAHRLDMATSGIIVFALSKAADRELKRQFREREPKKHYQAIVWGHLENDYGEVNLPMICDWENRPRQRLDFVLGKRAVTKFEVLARLPNNSTRVKLTPVTGRSHQLRLHMLALGHPILGDKFYSHPQAKVMSPRLCLHAEELTITHPITGETMTFNAKSDFLEHHHHHH”, which “soluble on expression in E. coli” value is on record?
**A.** not soluble

**Q.** For “MQNISTHKYMEKLDLTWSDDSIRFINTATPRARQTFFYVQEAGDFCTSSPYFTERENLNSFLIIYTLRGKGLLKYHGSQYSLHPGTTAYINCMEHHHYECLQKQNWEFLWLHFNGPSALGYYEEFMRSNFHILDSLDPFFMESTMRRILSITQRKDIHSEILSSCLIINILTRILIENDTENLSLGFMPTY”, which “soluble on expression in E. coli” value is on record?
**A.** not soluble

**Q.** For “MLYVVGIGPGNEEYFTKEAENALNSVDLIVCYTGYKKYIERFDTEIYVSGMTKEVERVEYALKEAENKNVALVSNGDATIYGLASLAYELNEKNLHNVTINVVSGL”, which “soluble on expression in E. coli” value is on record?
**A.** not soluble

**Q.** With “MGSDKIHHHHHHMPNDTHTTQANVDPAEIAKFEAMAQSWWDPNGEFKPLHQLNPLRLNYIDSTAGGIFAKKVLDVGCGGGILSESMAKLGANVDGIDMGEAPLEVARLHALESGVMVNYHKTTAEAHSASHANHYQVVTCMEMLEHVPDPQSVIQACCDMVEPGGFVFFSTINRNMLSYVQAILGAEYLLKLLPIGTHDHSKFIRPSELMAMVDNTDLICKDALGISFNPLTSIFSYTKSLEVNYMIATQKMAD” as the sequence, how does the “soluble on expression in E. coli” value read?
**A.** not soluble

**Q.** Which “soluble on expression in E. coli” value does the source give for “MKFILRLGLALLTGFVSVSTASAQAYGTADTNAPELRVPKSVQPAFDYWMRDTWATLGPDGYYYITGTTSTPDRHFPGQRHCWDWNDGLYLWRSKDLKIWEAMGRIWSMEKDGTWQKDPKVYKEGEKYAKKSINNDPMDNRFHAVWAPEMHYIKSAKNWFIVACMNQSAGGRGSFILRSTTGKPEGPYENIEGNEDKAIFPNIDGSLFEDTDGTVYFVGHNHYIARMKPDMSGLAEEIKTLKESKYSPEPYVEGAFIFKYDGKYHLVQAIWAHRTVKGDTYVEKEGLTNKKTRYSYDCIIATADNVYGPYGKRYNAITGGGHNNLFQDKDGNWWATMFFNPRGAQAAEYKVTCRPGLIPMLYENGKFKPNHNYQAK” here?
**A.** not soluble

**Q.** With “MGSDKIHHHHHHDDSVFTVMDDPSAAKKPFEGVVNAGYLAQSGNTKSSSMTADSTLTWYGNTTAWSLWGNASNTSSNDERSSEKYAVGGRSRYNLTDMNYVFGQGSWLTDRYNGYQQRDVVTAGYGRQILNGPVHSLRFEFGPGVRYDEYTDGDTDTQPLGYASGTWAWQMTDNAKFSQGVSVFGAEDTTVNSESALNVAINAHFALKVAYNVTWNSEPPASAPEHTDRRTSLSLGYKM” as the sequence, how does the “soluble on expression in E. coli” value read?
**A.** not soluble

**Q.** For “MSLGNPAAMLAAYNTSTQVAPQPQLGPRAGEVQLSSEQQAMIDYVLAGKDVIVDATVGSGKTTAIQRLCSIMGADHDVLYLTYSKLLKVDAQQRVRGAKVQNYHGIVYPHLLKAGIKCGISESIREFNKNFKHISRTFPSYDLLVIDEYQDINEDYAELLRNIKSVNPLMQIVMVGDLEQKVRSDTTLDPQEFAAQLCEDPVFAPFTQSFRIGEAMAAGLADAWNKPIVGANTAQQIEYRSFAEAVVLIQSTEPSKLLCLGSRNGQMSDALNVVERKSPAKFNKKTVFASIRDGDSQIAHPNDAAVFTTFDSSKGLERDTCVVFDYDEEFWDMRLGYPNVDPVVMRNVFLVAASRGKNKVVFVRSDSLQAAYEAGADWAAGLAVGVVDNNTEVAPEVDAHTPAEESKGDVGEVQSQIERMMGFIPVSVFKELPELAPSEYARPISVTEAFDFKYAENVEACFDLLDVKRLDNGKGAAIEVNRSDGLIDLSPTVGNFQEAVFFKDYNVHTALSAYPSQFAKNLKRLVKKNNSVWRNCLIVTAASTEQMRYVDQVRSSIPVAAEKALVSRLSTRLNADSRNQIPLILDGEAVQSKVVRTPMSFAGVADAVHKGVLYELKFVSELTHPMFLQLAMYLVMSGMKDGILWNTRTDEAWQVRVPDPKRFLNAVVLCVSKQDYRVGNFDLPSTGGEGHHHHHH”, which “soluble on expression in E. coli” value is on record?
**A.** soluble

**Q.** With “MHTQYFPNRRPGRIQPLGIQQNTIYVYVKVKHVLEFYAIDIRLPYHWHQIAKLNISEMSYTFSTLSPDFRYIYVLFLRVAREMATFAVQRFDLENNGTADLFLLNAAEELYRVFEVPLDSVTLRCDSGGQLVLYDRSIVQGEIPFWTIRLEESTKTFRILKNSIPTAGDDTERNSALFTIAVDPVNRCFAKLMSPRTMLVYTEERKRWVEYHIPVEQSLQDIFGSDGFPVEEIRGIRETFGTHGHRMGALQTRLTFHDLNDVLVARCLHLHWNTTATVEFDHVNREIQVRLLAKFPLDDEVTRMFYLIASKEHHVFLGVYDTAIVHIKSPKLEEIVGWRMQKMLMRDGHKDEVLQISNYRQLLALALTKYADKDEDLAENLKNLGIEPPRKKLVVMEIELD” as the sequence, how does the “soluble on expression in E. coli” value read?
**A.** not soluble

**Q.** Which “soluble on expression in E. coli” value does the source give for “MSLCGISGLVQLEGVADTSAMRRSVETMVKALAHRGPDDSGVAGDGSAVFGMARLAIRGCHDGRQPMVDAETGVMMVCNGEIDNHAELRGWLAERGRAVEHATDVAVIPGLYLELGDGFVERLVGAFALAVWDPRRGRLLLARDRAGERPLFYACRDGRVSFASQAAALVAGSPEPYPADEAAVQAFLKAGYFEAPASPFAGMRKVLPGERIAIDVKGVERSRYWRLNFTRGPARKNPLDEFDAVFREAVRRQSEVEVDFGAFLSGGVDSSLVTAVMRSVHPDRKLKAFGLRFSESSYDEGVFAERVAESLGVDYTPIWVRPEDFPETLADLVRQSGEPLADPAWVPTALLARRASDEVRVALVGEGADELFGGYPTYFGARLAERYSRLPGGLRALIRKAVEAWPVSDKKVTVSFLLKRFVQGDELDFLARHVLWTSSIPPALLRRLGVTPPETPHVAGPQETMLDRLQQHDLETSLAEGLLTKADRASMRSALELRAPFLDKDVIEFAATLPERERVQGLETKVFLKRVALRYLPKDIVYRKKRGLSVPLSAWLRGPLHDWAEARISSPRLEELGINRAAALELLREHERRSADHARALWTLIVVSEWLEWKAGMEAHEGHHHHHH” here?
**A.** soluble

**Q.** Which “soluble on expression in E. coli” value does the source give for “MEFIMKTRMFEEEGWIRKKCKVCGKPFWTLDPDRETCGDPPCDEYQFIGKPGIPRKYTLDEMREKFLRFFEKHEIYPHGRVKRYPVLPRWRDDVLLVGASIMDFQPWVISGEADPPANPLVISQPSIRFTDIDNVGITGRHFTIFEMMAHHAFNYPGKPIYWMDETVELAFEFFTKELKMKPEDITFKENPWAGGGNAGPAFEVLYRGLEVATLVFMQYKKAPENAPQDQVVVIKGEKYIPMETKVVDTGYGLERLVWMSQGTPTAYDAVLGYVVEPLKKMAGIEKIDEKILMENSRLAGMFDIEDLGDLRYLREQVAKRVGITVEELEKAIRPYELIYAIADHTKALTFMLADGVVPSNVKAGYLARLLIRKSIRHLRELGLEVPLSEIVALHIKELHKTFPEFKEMEDIILEMIELEEKKYAETLRRGSDLVRREIAKLKKKGIKEIPVEKLVTFYESHGLTPEIVKEIAEKEGVKVNIPDNFYSMVAKEAERTKEEKGEELVDFELLKDLPDTRRLYYEDPFMKEFDAKVLRVIKDWVILDATAFYPEGGGQPYDTGVLIVNGREVKVTNVQKVGKVIIHKVEDPGAFKEGMIVHGKIDWKRRIQHMRHHTGTHVLMGALVRVLGRHVWQAGSQLTTDWARLDISHYKRISEEELKEIEMLANRIVMEDRKVTWEWLPRTTAEQKYGFRLYQGGVVPGREIRVVKIEDWDVQACGGTHLPSTGLVGPIKILRTERIQDGVERIIFACGE” here?
**A.** soluble

**Q.** Which “soluble on expression in E. coli” value does the source give for “MSMVVDSVPDSSTFVGKTIRPVAAVSIHGIVFDGERLLAVDSKNGYLLEIDPYTNNTKLLNGQYWQEFIGATGLAIADRQLWFSSGQYVYTCNLEGPDLKPEVFAWFDDPVNGVAIWESTVYITCHKRGHIWVYGRDTRKLVATFYSPGIGVENITVRGEELWVCDSAEQSVYCLDRATGEINFSLITPFESPTGLAFYDDQAVGKATLYVAYVQQEPYVRDNPNADPNHELMYRETTFIHPLYFYNDPHQCCAFSNGYLVEMRYVEELAPLDPVDLKQVEWRMALPAVTPRQRIRKIESVGLPFSRIDDVNGQKVAVFEFDQLDLDSRAVFGWRVEMEVWGIKYRLKPSDCEHLPALPEGFADRYLVDNDNLSMETDIIIRAAAEAIGRETNLLRQMFNIRNYVYDRLSYGIKPHIDTPDLALRRGVGSCGEYVGVLLALARLNGIACRTAGRYKCPPHPLQRNLPMEPDFNHVWFEFYLPGIGWLPMESNPDDTNDGGPYPTRFFMGLAWYHAETAKDVPFEQLLSQGIPVNKQVVSIGELAINHVQFTILEELDPAAHLAHLEHHHHHH” here?
**A.** soluble
